From paper PMC2408619

Target: T1, Bordetella bacteriophage major tropism determinant variant Mtd-P1 (Bordetella bacteriophage BPP-1), Q775D6
T1 chain: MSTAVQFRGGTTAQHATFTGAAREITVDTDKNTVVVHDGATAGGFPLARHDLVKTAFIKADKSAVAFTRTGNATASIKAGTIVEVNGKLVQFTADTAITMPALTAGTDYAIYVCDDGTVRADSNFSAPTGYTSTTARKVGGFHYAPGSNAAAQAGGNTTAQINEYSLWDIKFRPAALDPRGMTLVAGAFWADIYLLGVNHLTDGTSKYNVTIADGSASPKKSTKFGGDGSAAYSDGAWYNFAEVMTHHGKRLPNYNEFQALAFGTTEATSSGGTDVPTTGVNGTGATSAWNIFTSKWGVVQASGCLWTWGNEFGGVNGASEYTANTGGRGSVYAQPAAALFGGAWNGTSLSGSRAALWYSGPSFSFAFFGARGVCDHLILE
Test: crystal structure; Mtd-P1·Prn-E complex formed with ~1.6-fold molar excess of Mtd-P1 trimers over His-tagged Prn-E, isolated by Ni2+-chelation and Superdex 200; crystals at 25 °C in 2 M NaCl, 100 mM Tris pH 8.5, 200 mM Li2SO4; 3.16 Å
Conditions: remark: other sources report otherwise

B1: Bordetella bacteriophage major tropism determinant variant Mtd-P1, Q775D6 1-381 (natural protein)
chain: MSTAVQFRGGTTAQHATFTGAAREITVDTDKNTVVVHDGATAGGFPLARHDLVKTAFIKADKSAVAFTRTGNATASIKAGTIVEVNGKLVQFTADTAITMPALTAGTDYAIYVCDDGTVRADSNFSAPTGYTSTTARKVGGFHYAPGSNAAAQAGGNTTAQINEYSLWDIKFRPAALDPRGMTLVAGAFWADIYLLGVNHLTDGTSKYNVTIADGSASPKKSTKFGGDGSAAYSDGAWYNFAEVMTHHGKRLPNYNEFQALAFGTTEATSSGGTDVPTTGVNGTGATSAWNIFTSKWGVVQASGCLWTWGNEFGGVNGASEYTANTGGRGSVYAQPAAALFGGAWNGTSLSGSRAALWYSGPSFSFAFFGARGVCDHLILE
stoichiometry N: 3
